Article PMC11839890 (European Journal of Nuclear Medicine and Molecular Imaging, 2024)
Like-named read-outs stand apart in the source and are kept apart here. Non-standard residues stand in square brackets, D forms with d. *: point of attachment. DOTA = O=C(O)CN1CCN(CC(=O)O)CCN(CC(=O)*)CCN(CC(=O)O)CC1

Key:
[1] = system: A431-CCK2R xenografts; assay: Biodistribution up to 7 days p.i. / preclinical pharmacokinetics in A431-CCK2R xenografted BALB/c nude mice; format: in vivo; details: mouse, in vivo
Description: (§1) The study was approved by the Dutch animal ethics committee (CCD) of the Radboud University and the Nijmegen Medical Centre animal ethics committee (RUDEC) (2020–0007–020). Mice were inoculated with A431-CCK2R cells (2 × 10^6 in 200 μL DMEM medium) at an age of 8–10 weeks. […] Samples were collected, weighted and measured in a gamma counter together with a 1% standard of the injected dose. Results were expressed as percentage of injected activity per gram of tissue (%IA/g), and tumour-to-organ activity ratios were calculated for selected organs. The biodistribution data were used to calculate the kinetics in mouse organs and A431-CCK2R xenografts. A detailed description of the dosimetry calculations and extrapolation from mice to humans can be found in the Supplementary Materials. A one-compartment distribution model was used to characterize the time-activity curves, which were fitted with a single-exponential function implementing Graphpad Prism software. […] Animal dosimetry was performed using the RADAR mouse phantom. The mouse phantom organ weights were used to translate the time-integrated activity concentration coefficients [TIAC] into the regular TIAC. The absorbed dose per given activity was calculated using the MIRD equation (medical internal radiation dose) and the S values obtained from the 25 g RADAR mouse phantom.

[2] = as above; format: in vivo; details: female, mouse, iv, total radioactivity
Description: as §1

[3] = in vivo; details: mouse; for tissue uptake at 4 h: BALB/c nude (athymic), total radioactivity, uptake in A431-CCK2R xenografts
Description: Biodistribution studies were performed in female athymic BALB/c nude mice (Charles River Laboratories, Sulzfeld, Germany) with A431-CCK2R xenografts induced and animals treated as described previously. The study was approved by the Austrian Ministry of Science (2022–0.351.553). […] Statistical analysis was performed on the data sets using the unpaired two-tailed t-test with a significance level of 0.05.

[4] = target: T1, human CCK2R (Homo sapiens, UniProt P32239); assay: Saturation binding on A431-CCK2R cells; details: 4°C, read-out: dissociation constant (Kd)
T1 construct: expressed in transfected cells; host or cells: A431 human epidermoid carcinoma cells, stably transfected (plasmid pCR3.1), provided by Dr. Luigi Aloj
T1 sequence (P32239 1-447): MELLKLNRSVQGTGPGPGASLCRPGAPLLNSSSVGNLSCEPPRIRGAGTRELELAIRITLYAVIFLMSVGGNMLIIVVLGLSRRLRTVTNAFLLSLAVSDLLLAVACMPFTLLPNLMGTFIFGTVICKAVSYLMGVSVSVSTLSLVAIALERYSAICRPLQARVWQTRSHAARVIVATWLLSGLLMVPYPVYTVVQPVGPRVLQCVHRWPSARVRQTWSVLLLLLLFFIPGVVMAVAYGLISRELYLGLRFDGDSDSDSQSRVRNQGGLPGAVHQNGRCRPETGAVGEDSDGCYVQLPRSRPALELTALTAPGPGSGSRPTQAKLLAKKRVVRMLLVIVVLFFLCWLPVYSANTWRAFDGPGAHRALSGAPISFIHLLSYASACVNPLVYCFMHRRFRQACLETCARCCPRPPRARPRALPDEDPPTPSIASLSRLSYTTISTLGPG
Description: The saturation binding assay was performed on A431-CCK2R cells plated 2 days prior to the assay at a density of 1×10^6 cells per well in 6-well plates. […] Before recovering the cell-associated radioactivity from the wells by using 1 M NaOH (two times), cells were washed twice with ice-cold phosphate-buffered saline (PBS). The radioactivity was then counted using a gamma counter (2480 Wizard2 3”, PerkinElmer Life Sciences and Analytical Instruments, formerly Wallac Oy, Turku, Finland) and non-specific binding was subtracted. For normalization to the number of cells, cells from three different wells were trypsinized and counted by Beckman Coulter Vi-CELL AS cell viability analyser (Beckman Coulter, Fullerton, CA, USA). Three independent assays were performed in triplicate. Binding curves were analysed using GraphPad Prism version 10.1.2 for Windows (GraphPad Software, Boston, Massachusetts USA).

[5] = system: tumour; details: in vivo; cited from earlier work
[6] = system: A431-CCK2R cells; details: cited from earlier work; for Bmax: A431-CCK2R cells, nM printed only with the first value of the sentence; for Kd: same cell line (A431-CCK2R), nM printed only with the PP-F11N value
[7] = BALB/c nude (athymic), in vivo, 20 pmol of peptide, Uptake, A431-CCK2R tumour
[8] = BALB/c nude (athymic), in vivo, 20 pmol of peptide, Uptake, blood
[9] = BALB/c nude (athymic), in vivo, 20 pmol of peptide, Uptake, heart
[10] = BALB/c nude (athymic), in vivo, 20 pmol of peptide, Uptake, kidney
[11] = BALB/c nude (athymic), in vivo, 20 pmol of peptide, Uptake, liver
[12] = BALB/c nude (athymic), in vivo, 20 pmol of peptide, Uptake, lung
[13] = BALB/c nude (athymic), in vivo, 20 pmol of peptide, Uptake, pancreas
[14] = BALB/c nude (athymic), in vivo, 20 pmol of peptide, Uptake, stomach
[15] = athymic BALB/c nude, in vivo, Uptake, femur
[16] = athymic BALB/c nude, in vivo, Uptake, heart
[17] = athymic BALB/c nude, in vivo, Uptake, intestine
[18] = athymic BALB/c nude, in vivo, Uptake, muscle
[19] = athymic BALB/c nude, in vivo, Uptake, spleen

## CCCC[C@@H](C(=O)N[C@@H](CC(=O)O)C(=O)N[C@@H](Cc1cccc2ccccc12)C(N)=O)N(C)C(=O)[C@H](Cc1c[nH]c2ccccc12)NC(=O)CNC(=O)[C@H](Cc1ccc(O)cc1)NC(=O)[C@H](C)NC(=O)[C@@H](CCC(=O)O)NC(=O)CN1CCN(CC(=O)O)CCN(CC(=O)O)CCN(CC(=O)O)CC1 [[^177Lu]Lu-DOTA-MGS5, metal not drawn]
[1]; female, BALB/c nude (athymic), iv, 20 pmol of peptide, 24 h
  Uptake, blood: 0.013±0.002 %IA/g
[1]; female, athymic BALB/c nude
  half-life of blood clearance: 2.8 h
[1]
  biological half-life of clearance from the tumour: 18.2 h
[2]; BALB/c nude (athymic), A431-CCK2R tumour xenograft, 20 pmol of peptide, A431-CCK2R xenograft, 1h p.i., i.v., n = 5, read-out: Uptake, A431-CCK2R tumour
  tissue uptake at 1 h: 68.1 ± 10 %ID/g
[2]; [7]
  tissue uptake at 24 h: 28.9 ± 7.2 %ID/g
  tissue uptake at 72 h: 12.6 ± 0.3 %ID/g
  tissue uptake at 168 h: 2 ± 0.5 %ID/g
[2]; [8]
  tissue uptake at 1 h: 1.9 ± 0.4 %ID/g
  tissue uptake at 24 h: 0.01 ± 0.002 %ID/g
  tissue uptake at 72 h: 0.004 ± 0.002 %ID/g
  tissue uptake at 168 h: 0.01 ± 0.01 %ID/g
[2]; [9]
  tissue uptake at 1 h: 0.8 ± 0.2 %ID/g
  tissue uptake at 24 h: 0.05 ± 0.01 %ID/g
[2]; [10]
  tissue uptake at 1 h: 3.7 ± 0.4 %ID/g
  tissue uptake at 24 h: 2 ± 0.2 %ID/g
  tissue uptake at 72 h: 1 ± 0.1 %ID/g
  tissue uptake at 168 h: 0.4 ± 0.1 %ID/g
[2]; [11]
  tissue uptake at 1 h: 1.3 ± 0.2 %ID/g
  tissue uptake at 24 h: 0.5 ± 0.1 %ID/g
  tissue uptake at 72 h: 0.2 ± 0.1 %ID/g
  tissue uptake at 168 h: 0.08 ± 0.01 %ID/g
[2]; [12]
  tissue uptake at 1 h: 4.6 ± 1.9 %ID/g
  tissue uptake at 24 h: 0.2 ± 0.1 %ID/g
  tissue uptake at 72 h: 0.1 ± 0.04 %ID/g
  tissue uptake at 168 h: 0.04 ± 0.01 %ID/g
[2]; [13]
  tissue uptake at 1 h: 1.7 ± 0.5 %ID/g
  tissue uptake at 24 h: 0.9 ± 0.2 %ID/g
  tissue uptake at 72 h: 0.7 ± 0.2 %ID/g
  tissue uptake at 168 h: 0.6 ± 0.1 %ID/g
[2]; [14]
  tissue uptake at 1 h: 8.1 ± 0.9 %ID/g
  tissue uptake at 24 h: 4.9 ± 0.4 %ID/g
  tissue uptake at 168 h: 1.3 ± 0.1 %ID/g
[2]; [15]
  tissue uptake at 1 h: 0.3 ± 0.1 %ID/g
  tissue uptake at 24 h: 0.052 ± 0.008 %ID/g
  tissue uptake at 72 h: 0.032 ± 0.007 %ID/g
  tissue uptake at 168 h: 0.06 ± 0.02 %ID/g
[2]; [16]
  tissue uptake at 72 h: 0.026 ± 0.005 %ID/g
  tissue uptake at 168 h: 0.018 ± 0.004 %ID/g
[2]; [17]
  tissue uptake at 1 h: 1.1 ± 0.3 %ID/g
  tissue uptake at 24 h: 0.17 ± 0.02 %ID/g
  tissue uptake at 72 h: 0.1 ± 0.01 %ID/g
  tissue uptake at 168 h: 0.04 ± 0.01 %ID/g
[2]; [18]
  tissue uptake at 1 h: 0.3 ± 0.2 %ID/g
  tissue uptake at 24 h: 0.04 ± 0.01 %ID/g
  tissue uptake at 72 h: 0.01 ± 0.003 %ID/g
  tissue uptake at 168 h: 0.018 ± 0.005 %ID/g
[2]; [19]
  tissue uptake at 1 h: 0.6 ± 0.1 %ID/g
  tissue uptake at 168 h: 0.09 ± 0.01 %ID/g
[3]
  tissue uptake at 4 h: 22.9 ± 4.7 %ID/g
[3]; female, iv, 20 pmol peptide
  tissue uptake at 4 h: 31.9 ± 12.8 %ID/g
[3]; female, athymic BALB/c nude, tumour uptake
  tissue uptake: ~23 %ID/g
[4]
  Kd: 5.25 ± 1.61 nM

## [^111In]In-DOTA-MG11: 111In-labelled DOTA-MG11 (DOTA-DGlu-Ala-Tyr-Gly-Trp-Met-Asp-Phe-NH2) ({DOTA}-[dE]AYGWMDF-NH2; also: 111In complexed by DOTA)
[5]
  tumour uptake: 2–3 % ID/g

## [^111In]In-DOTA-PP-F11: 111In-labelled DOTA-(DGlu)6-Ala-Tyr-Gly-Trp-Met-Asp-Phe-NH2 (AYGWMDF; 111In-DOTA-(DGlu)6, C-terminal amide; printed: Ala-Tyr-Gly-Trp-Met-Asp-Phe-)
[6]
  Bmax: 1.21 ± 0.06 nM
  Kd: 15.9 ± 2.2 nM

## [^177Lu]Lu-DOTA-PP-F11: 177Lu-labelled DOTA-(DGlu)6-Ala-Tyr-Gly-Trp-Met-Asp-Phe-NH2 (AYGWMDF; 177Lu-DOTA-(DGlu)6, C-terminal amide; printed: Ala-Tyr-Gly-Trp-Met-Asp-Phe-)
[6]
  Bmax: 0.65 ± 0.06 nM
  Kd: 41.7 ± 9.7 nM
